Assays:
Type in all cases: cell-based
[1] = tested on: gene editing with Cas9 and dCas9; assay: Screen of 322 new SSAP proteins, activity across all experiments (Cas9 and dCas9, Table 5); parameters: scale not given here
Summary of the method: (§1)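 The 322 SSAP proteins were found in sequence data and then synthesized. Each was screened for gene editing activity when paired with Cas9 and with dCas9.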

[2] = tested on: gene editing with Cas9; assay: Screen of 322 new SSAP proteins, gene editing activity with Cas9 (Table 5); parameters: Cas9 with SSAP activity: scale not given here
Summary of the method: as §1

[3] = tested on: gene editing with dCas9; assay: Screen of 322 new SSAP proteins, gene editing activity with dCas9 (Table 5); parameters: dCas9 with SSAP activity: scale not given here
Summary of the method: as §1

| Molecule | Activity across all experiments [1] | Cas9 with SSAP activity [2] | Cas9 with SSAP activity (normalized) [2] | dCas9 with SSAP activity [3] | dCas9 with SSAP activity (normalized) [3] |
| --- | --- | --- | --- | --- | --- |
| SSAP_101: SEQ ID NO: 270; Halomonadaceae bacterium R4HLG17 (protein, Halomonadaceae bacterium R4HLG17) SEVATQDTLGKELQQHSGQQKKPMPTTIQGMLKDPRFTSQIARALPKHITPDRITRIALTEVNKTPALGKCDPVTLFGSIIQSAQLGLELGGALGHAYLVPYGNQAQFIIGYRGMIDLARRSGQMVSLQAHTVHDNDEFDFEYGLDEKLRHVPARGDRGPMVAVYSVAKLVGGGHQIEVMWKEDVDAIRSKSKAGNSGPWRDHYEEMAKKTAIRRLFKYLPVSVEMQKAVALDEQAEAGVQDNNVFDGEFSYGEAE | −2.036 | −1.798 | −0.307 | −2.273 | −0.413 |
| SSAP_32: SEQ ID NO: 201 (protein) EFETDEEEKEMSNNQLSTQQAKRDIAIDTSVWTFQDVKRYFDPQNLLTEKQVGQALSLIKGRNLNPLANEVYIVAYKKKTGGTEFSLIVSKEAFLKRAAQNPNYEGFEAGVVTVDTDGVMHERKGALMLPGDTLVGGWARVYRKNFKVPVEIFVSREEYDKKQSTWNAMPATMIRKTALVNALREAFPEDLGNMYTEDDGGETFDRIKQAEPVESREDVMARKMAQIEQMKQEQAQRQIDTSYPTDDVIDPDDEPAQGELLEDLEY | −1.308 | −0.435 | −1.203 | −2.180 | −0.281 |
| SSAP_129: SEQ ID NO: 298; Lacrimispora indolis (protein, listed as Lacrimispora indolis) SDVKQELEKRAAGGGGQSQSVRLTKNMTIVDMVKALEPEIKRALPSILTPERFTRMALSAINNTPKLGECTPMSFIAALMNAAQLGLEPNTPLGQAYLIPYKNKGVLECQFQLGYRGLIDLAYRNERMQSVEAQVVYENDEFSYELGLHPSLIHRPSFDEPGEIRAFYAIFRLDNGGFRFEVMSKSYVDAYAARYSKAFTSDFSPWKSNYEGMAKKTVIKQLLKYAPMKSEFQKAVTMDETIKTELSVDMSEVSNQEVIDRELTEQVA | −1.200 | 0.031 | 0.019 | −2.431 | −0.313 |
| SSAP_142: SEQ ID NO: 311; Roseburia intestinalis (protein, listed as Roseburia intestinalis) GDIRSELAKKAEQTQGNTKLTKSMSIADLIKAMEPEIQKALPSVITPERFTRMALSALNTTPKLQECTPMSFLAALMNAAQLGLEPNTPLGQAYLIPYKNKNVLECQFQLGYRGMIDLAYRNGHMQSIEAQAVYENDVFSYALGLHPELVHKPTLEEKGALKAFYAIFRLDNGGFRFEVMGKTYIDWYANRYSKAFTSEFSPWKSNYEGMAKKTVIKQLLKYAPLKTEFQRALSTDETIKNSLNVDMGEVLSEDIIDMPCEEVA | −0.974 | 0.197 | 0.073 | −2.145 | −1.216 |
| SSAP_274: SEQ ID NO: 443; Clostridium liquoris (protein, listed as Clostridium liquoris) TTASELKNQLATRKETGVGSAGNTVKGLLESPAIKKRFEEVLKQRAPQYMSSIVNLVNGDANLKKCDQMSVIASCMVAATLDLPVDKNLGYAWVVPYGNKAQFQLGYKGYVQLALRTGQYKSINVIEIHEGELIEWNPLTEELRIDFEKKKSDAIIGYAGYFELINGFRKSTYWTKEQITKHKNKFSKSDFGWKKDFDAMAKKTVLRNMLSKWGILSIEMQNAYTADQETIKSEVLETGNIKENVEYVEADFDVDFEGTPFEEGVTNE | −1.072 | 0.280 | 0.259 | −2.423 | −0.328 |
| SSAP_165: SEQ ID NO: 334; Robinsoniella sp. KNHs210 (protein, listed as Robinsoniella sp.) TTRTGNIKEELAKKAEGTNGDTRLTKAMSIADLIKAMEPEIKKALPEVITPERFTRMALSALNTTPKLRECTQISFLAAMMNAAQLGLEPNTPLGQAYLIPFNNKGTMECQFQIGYKGMIDLSYRNPQMQMISAQAVYENDEFKYELGLNPTLIHRPVLRGRGEVILFYGLFKLTNGGYGFEVMSKEEMDAYAKAYSKAIDSSFSPWKSNYNGMAKKTVIKQVLKYAPIKADFRKALSSDETIKNEISENMSEIHGEIIFDTDYMEESA | −1.538 | −0.918 | −0.925 | −2.157 | −0.568 |
| SSAP_203: SEQ ID NO: 372; Oenococcus oeni (protein, listed as Oenococcus oeni) SNELKTILNAPTTKEKFDEVLGRNAQGYINSVLNAVGNSKLLQNASPNSILSGAMKAATLNLSIDPNLGYAYFVPYGHEAQLQIGYQGLIQLAQRSGQIKILNAAPIYDEQFKSLDPVTGKLTLNKKIVPDTNKKPTGYVAYLKTVTGFEHTEFMSYADIEKFAKRFSKSFNSSTSPWKTDFNAMAKKTLIKQVLKYAPMSIDLQTAVSADNDDIEPKDITPDEDKETVDKISNLISDNKQDDTLSQLEEVANANN | −2.400 | −2.670 | −0.476 | −2.129 | −0.311 |
| SSAP_68: SEQ ID NO: 237 (protein) TQQMPIEAQGEPTKELQQKAAVDRFNATLHQMQNEIARALPKHMTGDRFVRIVLTEVRKDPTLALCDPLTMFGSLLTAAALGLEPGLNGECWLVPRKNHGTLEAQLQVGYRGVVKLFWQNPAAAYLDTGYVCERDHFRFAKGLNPILEHTPAEGDRGKVVRYYAVAGLNTGARVFDVFTPAQIKTLRGGKVGSNGDIPDPEHWMERKTALLQVLKLMPKSTQLAAVPAADGRAHTISDAQQIFGGVDTSTGEVLEAEPVEGDAA | −0.560 | 1.110 | 4.696 | −2.230 | −0.296 |
| SSAP_145: SEQ ID NO: 314; Roseburia sp. CAG: 182 (protein, listed as Roseburia sp.) DVKEELAKMAEEKPTKKLTKSMSIQDMIKVIEPEIKKALPSVLTPERFTRMALSAINNTPKLAECSQISFLAALMNAAQLGLEPNTPLGQAYLIPFQNKGKLECQFQIGYKGIIELVYRNPLIQTIQAQVVYENDEFEYELGLNSRLFHRPALYDRGETVLFYALFKMSNGGYGFEVLSKQDMDAYAKRYSKGISSEYSPWKSNYEEMAKKTMIKKVLKYAPIRTDFQKAVSMDESIKKELSVDMSEVSNENIIDMEEITQEEE | −1.325 | −0.211 | −0.214 | −2.440 | −0.309 |
| SSAP_81: SEQ ID NO: 250 (protein) TDVKQELERKVGKQDSTAVRLTKNMSIPDMIKALEPEIRRALPAVLTPERFLRMALSAVNNTPKLAECTPMSFIAAMMNAAQLGLEPNTPLGQAYLIPYKNKNQLECQFQIGYKGIIDLAYRTGQMQMIQAHAVHEFDDFEYEYGLNPKLIHRPGDGNRGEITYFYGLFKLVNGGFGFEVMNREAMEAFAQQYSQSYGSQYSPWVKNFEDMAKKTVIKKALKYGPVKAEFQKAISMDETIKTEIAVDMTEVQNEESE | −2.308 | −2.257 | −0.341 | −2.360 | −0.367 |
| SSAP_319: SEQ ID NO: 488; Helicobacter trogontum (protein, listed as Helicobacter trogontum) SNITTIQRKNEALALLENKEIQERLCALCGNEASKDKFKASLLNIALDSNLSACSMQSIVKASLDIAGLKLSLNKNLGKAYIVPRKVKIGNDYITEARIDIGYKGWLELAKRSKLSVKAHSVFDCDDFVYSVDGVDEYMKLTPNFELRQEHDSAWVKEHLKGIVVGIKDLKSGDSEVKFVSKGTLLKIMQKNDSVKNGKYSAYTDWLHEMLLAKAIKSCLSKTAMSEDTFYLIISNNKLFI | −0.883 | 0.742 | 1.773 | −2.508 | −0.276 |
| SSAP_224: SEQ ID NO: 393; Clostridium tyrobutyricum (protein, listed as Clostridium tyrobutyricum) SDKKMVVLGESHKALSKLLETKQEALPKDFNKARFLQNCMTVLQDTKDIDKCQPISVARTMLKGAFLGLDFFNRECYAIPYGGNLQFQTDYKGEIKLAKKYSFNSIKDIYAKIVREGDDFQESIEDGRQTINFKPLPFNNGEIIGAFAVCLFQDGSMLYETMTKQEIEDIRNNFSKAKNSPAWVKTPGEMYKKTVLRRLCKLIELDFDSVETKKTYDETSEFEFGSANHEVSNFDKDDSNIIEADAEIQDDVQEGDGEDE | 0.449 | 3.010 | 2.232 | −2.113 | −0.351 |
| SSAP_155: SEQ ID NO: 324; Staphylococcus nepalensis (protein, listed as Staphylococcus nepalensis) ATQNQFKNQLTQKKENNNQPQQKAVGPKQEISNLLDRMAPQIQKALPQHMSAERMARIAMTAVSSTPKLLECDPKSLIGALMQSSQIGLEPNTNLGQAYLIPYGKEVQLQVSYLGMIELANRSKQYKAIYAHEVYPEDYFEYQYGLQKDLIHKPADNPQSEPIGYYAVYHLLNGGYDFVYWSKAKIDDHARQFSKAVQKGWQSPWKTNFNAMAKKTVLKDLLKFAPKSIEMNNAVSSDSKAQQIDDDGNIIDVTDYSQVNDEPEQLQEGQ | −2.122 | −2.139 | −0.908 | −2.105 | −0.826 |

— US20250034594A1, “RNA-GUIDED GENOME RECOMBINEERING AT KILOBASE SCALE” (THE BOARD OF TRUSTEES OF THE LELAND STANFORD JUNIOR …, priority 2021, published 2025)
